Laboratory results published in PMC10180154, “Screening and Identification of ssDNA Aptamers for Low-Density Lipoprotein (LDL) Receptor-Related Protein 6”.

B1: MutLRP6-A2 (ssDNA)
DNA: AGCAGCACTTAGGTCAGATGGCCACATTAGTCTCACCACTACCTTTTTTCCTACCGCCGCCCTATGCGTGCTACCGTGAA
B2: MutLRP6-A3 (ssDNA)
DNA: AGCAGCACAGAGGTTATTTGGCAGCTAAGCAGGCGGCTCACAAAACCATTCGCATGCGGCCCTATGCGTGCTTTTGTGAA

Target: LRP6 (recombinant human LRP-6, Fc chimera) (Homo sapiens, UniProt O75581 20-1370)
Assay: SPR; CE-LIF: incubation pH 8.0, 0.155% glutathione, 0.395% Tris-HCl; running buffer 50 mM borate pH 7.6, 20 kV, 25 C (CE-SELEX conditions). SPR: PBST pH 7.4, 0.05% Tween-20, 25 C, protein amine-coupled on CM5. AuNP: room temperature, then 0.9 M NaCl.
Conditions: protein: commercial; tags: Fc chimera; chain copies: 2

Chain of LRP6 (recombinant human LRP-6, Fc chimera) (O75581 20-1370, change not shown): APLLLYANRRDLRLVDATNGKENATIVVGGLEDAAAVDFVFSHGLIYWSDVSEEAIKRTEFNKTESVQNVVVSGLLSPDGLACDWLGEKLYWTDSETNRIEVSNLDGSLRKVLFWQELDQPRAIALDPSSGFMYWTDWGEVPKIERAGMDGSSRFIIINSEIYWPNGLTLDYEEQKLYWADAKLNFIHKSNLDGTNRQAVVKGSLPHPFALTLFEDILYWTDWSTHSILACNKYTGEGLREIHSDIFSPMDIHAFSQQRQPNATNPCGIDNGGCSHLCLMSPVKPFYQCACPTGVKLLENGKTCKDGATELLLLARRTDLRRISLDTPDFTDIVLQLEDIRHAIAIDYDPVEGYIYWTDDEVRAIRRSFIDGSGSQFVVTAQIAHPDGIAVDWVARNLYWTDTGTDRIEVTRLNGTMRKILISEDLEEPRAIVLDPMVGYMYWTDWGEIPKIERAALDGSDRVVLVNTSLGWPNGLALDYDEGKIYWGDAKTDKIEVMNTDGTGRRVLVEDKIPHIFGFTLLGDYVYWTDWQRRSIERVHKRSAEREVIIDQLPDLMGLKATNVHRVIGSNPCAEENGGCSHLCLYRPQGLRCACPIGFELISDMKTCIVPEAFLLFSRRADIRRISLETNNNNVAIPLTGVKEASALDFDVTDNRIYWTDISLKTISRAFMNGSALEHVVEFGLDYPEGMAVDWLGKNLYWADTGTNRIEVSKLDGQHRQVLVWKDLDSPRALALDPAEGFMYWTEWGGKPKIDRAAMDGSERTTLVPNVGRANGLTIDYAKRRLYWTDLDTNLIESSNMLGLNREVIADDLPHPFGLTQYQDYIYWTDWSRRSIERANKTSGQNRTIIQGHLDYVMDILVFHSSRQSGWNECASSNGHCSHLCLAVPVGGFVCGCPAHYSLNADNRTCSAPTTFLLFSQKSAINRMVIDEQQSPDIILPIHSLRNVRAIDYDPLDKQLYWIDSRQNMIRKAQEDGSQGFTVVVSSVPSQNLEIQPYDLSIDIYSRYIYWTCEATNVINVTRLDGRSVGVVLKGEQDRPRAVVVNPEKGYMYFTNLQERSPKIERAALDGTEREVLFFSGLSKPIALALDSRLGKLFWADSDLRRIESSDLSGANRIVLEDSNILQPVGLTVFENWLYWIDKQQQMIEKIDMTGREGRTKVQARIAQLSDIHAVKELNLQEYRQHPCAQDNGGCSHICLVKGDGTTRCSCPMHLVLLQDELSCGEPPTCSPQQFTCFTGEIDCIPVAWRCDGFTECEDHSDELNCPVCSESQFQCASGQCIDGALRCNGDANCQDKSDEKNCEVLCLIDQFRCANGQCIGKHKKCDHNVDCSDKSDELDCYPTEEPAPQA

Row | Binder | binding result | Kd [nM]
1 | B1 | no binding | –
2 | B2 | – | 2680
